# Laboratory results: the supplement of paper PMC9170038
# Test system: MS2 coat protein
# Experiment: apparent KD of MS2 coat protein; higher = weaker reporter binding
# Conditions: Eterna round: R107
# Procedure: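 RNA-MaP round R107: designed RNA switches with theophylline, tryptophan, arginine or FMN aptamers are transcribed on-chip within common flanks. They are titrated with SNAP-549-labelled MS2 coat protein in RNA-MaP buffer (100 mM Tris pH 7.5, 80 mM KCl, 4 mM MgCl2), without ligand or with the indicated ligand. Median apparent KD per design.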
# [1] = input ligand: theophylline 20 uM
# [2] = input ligand: theophylline 2 mM
# [3] = input ligand: tryptophan 2.4 mM
Sequence,apparent KD of MS2 coat protein (input ligand: arginine 13.2 mM) [nM],apparent KD of MS2 coat protein (input ligand: none) [nM],apparent KD of MS2 coat protein [1] [nM],apparent KD of MS2 coat protein [2] [nM],apparent KD of MS2 coat protein [3] [nM]
AACGUAUACAGAAGGAGCGUGAAUUAUUUUAUUUUUUUAUAAACAUGAGGAUCACCCAUGUCACAGGUAGGUCGCUGUAUUCGUA [JR_ExcArginiB_Sub018],23.8,18.4,40.5,22.8,19.2
AACUAAUCACAUGAGGAUCACCCAUGUGAUACCAGCUAAUCCCAAAGCCCUUGGCAGCACCUUUGGGUCCCGGUGUGUUUGAACA [Onceesa],9.42,,12.3,,9.33
AAGCAGGGUGUAAAAUAAAUAAUCACUGAUACCAGACUAUGAGAUGUCCCUUGGCAGCAGAAACAUGAGGAUCACCCAUGUAAUA [JR_Nu_ExcTheophyA_Sub029],21.1,,28.4,,27.3
AAGCUGACAAGAAGGUGUUCCUAAGCUGAUACCAGCCUGGAAACAGGCCCUUGGCAGCAGCACAUGAGGAUCACCCAUGUAAUAA [(T)'-(M)'-(T1)-(T2)-(M1)-(M2)_Design2(Mismatches)],101,,172,,115
AAGUGGCACGGAAGGAGCGAGUUUGCCUAUUACAUGAGGAUCACCCAUGUGGGUAAUGGGACUCAGGUAGGUCGCCGUUGUCACU [Same State Arginine B GF 26],29.5,56.8,48.5,42,46.3
AAUAAACAUGAGGAUCACCCAUGUAGGGUGCGAGGACCGGUACGGCCGCCACUCGGGUGAAAACAUGAAAAUCACCCAUGUAAAA [Mat - Exclusion - Trytophan A - D24],113,125,192,206,232
AAUAACAUGAGGAUCACCCAUGUAAAAGAUACCAGAGUGAUGAUCCUCCCUUGGCAGCUUAACGCUGAUUGGAAACAAUCAGCGA [Mat - Same State Theophlline A - Mod of Eli - D1],34.1,,268,,67.6
AAUAACAUGAGGAUCACCCAUGUAAGUAAACGAGGACCGGUACGGCCGCCACUCGAAUAAAUAAAGUACCGGUAAGAUCCAGGGA [Default title],14.6,,19,15.4,
AAUAACAUGAGGAUCACCCAUGUAAGUGGGCGAGGACCGGUACGGCCGCCACUCGGAUGAUGUUGACGAAAAGUCAGCAUCAUCA [#OpenEnded 2 #GuTurnoff #Tail],25.9,24.7,31.3,34.1,55.1
AAUAAUAAGGCGGCCGCCACUAAACAUGAGGAUCACCCAUGUCUCGAGCGCAUGCAUAAGGGAUGUAGGACCGGGCCAAUAAUAA [Exclusion - Tryptophan B (Freestyle 2)],22,29.7,32.6,27.9,23.6
AAUAAUAGGUGAUCCUAACGAGUGGCAUAACGAGGACCGGUACGGCCGCCACUCGAACAUGAGGAUCACCCAUGUAGUCACUCGA [M'-T'-T-MS2-T'' - Design 5],82.9,,280,751,
AAUAAUAGGUGAUCUUGAGUCGUACCGUAACGAGGACCGGUACGGCCGCCACUCGAACAUGAGGAUCACCCAUGUAUGUAUGAUA [whbob_SS_trypto A_f6],48.6,,128,276,
AAUAUUAUGUCGGCCGCCACUUCCCACAAGAGGUGCCUGCACCCACAUGAGGAUCACCCAUGUCGAAGGACCGGGACGCUCAAUU [theeternabot_sameState_MS2_Trp_B_35],20.5,,23.6,21.6,
AAUCAUGGAAACAUGACAUGAGGGUUGCUCCGAGGACCGGUACGGCCGCCACUCGCGAGGAGGCGGACAUGAGGAUCACCCAUGU [#05 Tryptophan A Same State],40.3,252,280,328,68.2
AAUGGUGGAACGAAGUACAGGAGUACAAAUCGAGGACCGGUACGGCCGCCACUCGCGAAAGAACAUGAGGAUCACCCAUGUAAAA [theeternabot_exclusion_MS2_Trp_A_34],12.1,8.09,21.8,177,11.1
AAUUAUUACGGAAGGAGCGUCUUUCGGCUCAAACAUGAGGAUCACCCAUGUGAUUUUGAAUGACAGGUAGGUCGCCGAUAUUUGA [JR_AAArginiB_Sub030],24.4,26.4,41.5,32.1,25.2
AAUUGCGUUGGUGAGGCGGUUAAUGGCGAUACCAGCGUGGAAACACGCCCUUGGCAGCGCCAAAACAUGAGGAUCACCCAUGUUA [Liberec],50.7,,149,,82.5
